Measurements from IntAct's records for PubMed 16858409.

B1: TNF receptor-associated factor 3 (Mus musculus), Q60803 (parent)
chain: MESSKKMDAAGTLQPNPPLKLQPDRGAGSVLVPEQGGYKEKFVKTVEDKYKCEKCRLVLCNPKQTECGHRFCESCMAALLSSSSPKCTACQESIIKDKVFKDNCCKREILALQVYCRNEGRGCAEQLTLGHLLVHLKNECQFEELPCLRADCKEKVLRKDLRDHVEKACKYREATCSHCKSQVPMIKLQKHEDTDCPCVVVSCPHKCSVQTLLRSELSAHLSECVNAPSTCSFKRYGCVFQGTNQQIKAHEASSAVQHVNLLKEWSNSLEKKVSLLQNESVEKNKSIQSLHNQICSFEIEIERQKEMLRNNESKILHLQRVIDSQAEKLKELDKEIRPFRQNWEEADSMKSSVESLQNRVTELESVDKSAGQAARNTGLLESQLSRHDQMLSVHDIRLADMDLRFQVLETASYNGVLIWKIRDYKRRKQEAVMGKTLSLYSQPFYTGYFGYKMCARVYLNGDGMGKGTHLSLFFVIMRGEYDALLPWPFKQKVTLMLMDQGSSRRHLGDAFKPDPNSSSFKKPTGEMNIASGCPVFVAQTVLENGTYIKDDTIFIKVIVDTSDLPDP
partner: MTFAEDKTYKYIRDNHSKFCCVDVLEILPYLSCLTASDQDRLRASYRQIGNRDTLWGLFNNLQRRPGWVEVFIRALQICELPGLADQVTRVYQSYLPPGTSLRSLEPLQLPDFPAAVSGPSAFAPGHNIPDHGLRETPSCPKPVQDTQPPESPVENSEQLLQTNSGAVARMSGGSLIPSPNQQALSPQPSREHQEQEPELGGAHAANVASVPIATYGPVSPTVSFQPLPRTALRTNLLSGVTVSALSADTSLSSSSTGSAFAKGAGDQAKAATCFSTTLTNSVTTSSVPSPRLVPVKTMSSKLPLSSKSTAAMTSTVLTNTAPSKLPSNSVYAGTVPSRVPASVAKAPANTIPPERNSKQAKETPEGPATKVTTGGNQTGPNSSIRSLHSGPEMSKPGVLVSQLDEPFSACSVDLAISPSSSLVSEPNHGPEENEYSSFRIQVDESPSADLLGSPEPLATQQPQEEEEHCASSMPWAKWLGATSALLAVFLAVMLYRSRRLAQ
B2: Mitochondrial antiviral-signaling protein (Mus musculus), Q8VCF0 (parent)
chain: B1 partner
partner: B1 chain

Variants of: B1
Conditions: with mavs_mouse Mavs

Variant	effect of a mutation on the interaction
Q442A	disrupting interaction
Y440A	disrupting interaction

Variants of: B2
Conditions: with traf3_mouse Traf3, Q60803

Variant	effect of a mutation on the interaction
T147I	disrupting interaction
